From doi:10.1101/2023.01.09.523336

Target: Cyanophycin synthetase 1 (CphA1) from Tatumella morbirosei DSM 23827 (Tatumella morbirosei DSM 23827)
Assay: SEC

stoichiometry N: 4
Substance: Cyanophycin synthetase 1 (CphA1) from Tatumella morbirosei DSM 23827 (enzyme)
